Literature values, collected in US10421954B2, “Hybrid polymers, pharmaceutical compositions and methods of synthesizing the same” (New York University, priority 2013, dated 2019).

Settings: literature value (ref. 25) for marketed PTH (1-34) (Forteo)

SMILES: CC[C@H](C)[C@H](NC(=O)[C@H](CCC(=O)O)NC(=O)[C@H](CO)NC(=O)[C@@H](NC(=O)[C@@H](N)CO)C(C)C)C(=O)N[C@@H](CCC(N)=O)C(=O)N[C@@H](CC(C)C)C(=O)N[C@@H](CCSC)C(=O)N[C@@H](Cc1cnc[nH]1)C(=O)N[C@@H](CC(N)=O)C(=O)N[C@@H](CC(C)C)C(=O)NCC(=O)N[C@@H](CCCCN)C(=O)N[C@@H](Cc1cnc[nH]1)C(=O)N[C@@H](CC(C)C)C(=O)N[C@@H](CC(N)=O)C(=O)N[C@@H](CO)C(=O)N[C@@H](CCSC)C(=O)N[C@@H](CCC(=O)O)C(=O)N[C@@H](CCCN=C(N)N)C(=O)N[C@H](C(=O)N[C@@H](CCC(=O)O)C(=O)N[C@@H](Cc1c[nH]c2ccccc12)C(=O)N[C@@H](CC(C)C)C(=O)N[C@@H](CCCN=C(N)N)C(=O)N[C@@H](CCCCN)C(=O)N[C@@H](CCCCN)C(=O)N[C@@H](CC(C)C)C(=O)N[C@@H](CCC(N)=O)C(=O)N[C@@H](CC(=O)O)C(=O)N[C@H](C(=O)N[C@@H](Cc1cnc[nH]1)C(=O)N[C@@H](CC(N)=O)C(=O)N[C@@H](Cc1ccccc1)C(=O)O)C(C)C)C(C)C [PTH (1-34), parathyroid hormone 1-34]
- half-life in serum: ~5 min
